Results on one substance are retold here after paper doi:10.1101/2025.11.11.687775.

The assay concerns the target microtubules of primary rat hippocampal neurons (rat (endogenous in primary hippocampal neurons)) (UniProt P68370).

As for “GFP-tagged Tau lacking the microtubule-binding domain (delMTBD-Tau; PRR2-WT, MTBD deleted) (from UniProt P10636-6 1-383) (natural protein)”, the FRAP recovery plateau in rat neurons is 0.873.
